Literature values as cited in paper PMC9240770.

Biological target: TREM-1 (Mus musculus) (UniProt Q9JKE2)
Test: SPR

UniProt Q9JKE2, sequence (Q9JKE2 21-230): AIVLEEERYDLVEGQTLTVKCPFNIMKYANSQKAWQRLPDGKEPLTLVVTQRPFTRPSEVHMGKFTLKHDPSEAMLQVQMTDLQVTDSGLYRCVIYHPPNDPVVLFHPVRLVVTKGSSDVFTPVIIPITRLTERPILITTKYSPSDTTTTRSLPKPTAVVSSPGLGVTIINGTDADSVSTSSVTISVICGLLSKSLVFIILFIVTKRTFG

Substance | Kd
CIRP (from UniProt P60824) | 0.117 µM
HMGB1 (from UniProt P63158) | 35.4 µM
